The values that follow come from patent publication US9598687B2.

In the test the target is recombinant human prothrombin (Factor II) (human) (UniProt P00734).

On to “endoproteinase Lysyl endopeptidase (Lys-C) (tool reagent)”, for which the Lys-C fragments identified by reverse phase UPLC and mass spectrometry (peptide mapping) came out at 25 fragments.
